Tests used:
ENTPD5 protein = molecular target: T1, ENTPD5 protein (Homo sapiens (Human), UniProt O75356 25-428); assay: ELISA on coated ENTPD5 protein, anti-hIgG-HRP, OD450
T1 construct: also called CD39L4; ENTPDase 5
T1 sequence: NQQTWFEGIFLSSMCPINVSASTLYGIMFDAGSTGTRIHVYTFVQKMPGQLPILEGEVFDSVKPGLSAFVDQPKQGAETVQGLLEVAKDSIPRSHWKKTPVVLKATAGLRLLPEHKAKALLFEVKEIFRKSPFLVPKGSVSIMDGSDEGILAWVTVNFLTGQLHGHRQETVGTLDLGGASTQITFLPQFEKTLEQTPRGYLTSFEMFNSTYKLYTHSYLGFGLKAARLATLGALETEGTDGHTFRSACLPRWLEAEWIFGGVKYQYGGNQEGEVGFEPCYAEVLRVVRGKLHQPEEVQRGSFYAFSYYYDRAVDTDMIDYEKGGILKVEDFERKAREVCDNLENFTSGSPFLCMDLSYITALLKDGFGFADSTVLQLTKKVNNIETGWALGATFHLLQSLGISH
Protocol: (§1) Binding specificity of the purified humanized antibody hu23.H5L5 against ENTPDase family members was detected by ELISA assay. Briefly, ENTPD1 (i.e. CD39) and ENTPD 2/3/5/6 proteins were coated on 96-well ELISA plates at 4° C. overnight, next day the ELISA plates were washed and blocked using blocking buffer (1% BSA in PBS with 0.05% Tween20) 200 μL/well for 2 hours. Then hu23.H5L5 gradients were duplicated into the wells and stained with anti-hIgG-HRP. After plate washing, the plates were developed with TMB substrate and stopped by 2N HCl. The OD450 were recorded using plate reader and platted by Graphpad Prism.

[1] = molecular target: T2, human CD39 (full length, on cells) (human, UniProt P49961 1-510); assay: FACS, MOLP-8 cells
T2 construct: Recombinant on CHOK1-hCD39 cells or natural on SK-MEL-28, SK-MEL-5 and MOLP-8 cells; the cell line is named under assay; also called hCD39; ENTPD1
T2 sequence: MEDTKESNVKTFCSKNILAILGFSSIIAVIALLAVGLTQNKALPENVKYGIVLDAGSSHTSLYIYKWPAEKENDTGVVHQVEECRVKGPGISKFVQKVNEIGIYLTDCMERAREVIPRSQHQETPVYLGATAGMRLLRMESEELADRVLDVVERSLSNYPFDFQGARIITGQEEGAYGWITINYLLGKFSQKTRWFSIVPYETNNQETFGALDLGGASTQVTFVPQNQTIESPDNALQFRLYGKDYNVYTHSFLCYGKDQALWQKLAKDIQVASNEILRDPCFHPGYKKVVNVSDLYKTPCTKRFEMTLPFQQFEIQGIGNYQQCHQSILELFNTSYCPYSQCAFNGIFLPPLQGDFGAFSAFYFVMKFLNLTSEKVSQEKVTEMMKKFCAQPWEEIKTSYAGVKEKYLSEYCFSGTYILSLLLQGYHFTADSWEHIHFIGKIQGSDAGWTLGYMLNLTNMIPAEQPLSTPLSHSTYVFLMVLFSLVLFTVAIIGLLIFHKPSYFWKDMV
Protocol: Similarly, human CD39 expressing cells SK-MEL-5, SK-MEL-28 or MOLP-8, were incubated with a gradient concentration of anti-CD39 antibodies for 30 minutes at 4° C. Cells were washed 3 times using FACS buffer and next incubated with fluorescence labelled secondary antibody (goat-anti-mouse IgG or goat anti-human IgG) for 30 minutes at 4° C. Cells were washed 3 times and then re-suspended in FACS buffer and analyzed by flow cytometry analysis on BD Celesta. Data plotted and analyzed using GraphPad Prism 8.02.
The binding affinity of the humanized antibodies for c23 was determined by FACS, using similar methods as described in Example 3.2. The c23 humanized antibody clones showing good binding affinity are listed in below Table 19 and Table 20, and also shown in FIGS. 7A, 7B and FIG. 8. EC₅₀ is the concentration of the indicated antibodies to reach 50% of the signal in this assay.

[2] = molecular target: T3, human CD39 (protein; form not stated) (human, UniProt P49961 38-478, limits assumed); assay: ELISA on coated ENTPD1 (CD39) protein, anti-hIgG-HRP, OD450
T3 construct: also called ENTPD1; ENTPDase 1
T3 sequence: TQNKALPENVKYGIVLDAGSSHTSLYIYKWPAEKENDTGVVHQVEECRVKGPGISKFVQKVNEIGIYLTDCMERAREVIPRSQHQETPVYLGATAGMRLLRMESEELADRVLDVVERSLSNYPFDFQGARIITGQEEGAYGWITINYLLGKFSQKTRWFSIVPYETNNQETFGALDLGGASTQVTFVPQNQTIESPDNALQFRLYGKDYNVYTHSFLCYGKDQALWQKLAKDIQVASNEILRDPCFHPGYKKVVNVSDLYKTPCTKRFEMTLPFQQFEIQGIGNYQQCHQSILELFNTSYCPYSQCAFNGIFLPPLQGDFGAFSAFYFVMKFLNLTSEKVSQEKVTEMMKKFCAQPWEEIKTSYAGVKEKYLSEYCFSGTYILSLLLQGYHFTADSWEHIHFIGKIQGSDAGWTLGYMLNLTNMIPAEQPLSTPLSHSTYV
Protocol: as §1

ENTPD2 protein = molecular target: T4, ENTPD2 protein (Homo sapiens (Human), UniProt Q9Y5L3 29-462); assay: ELISA on coated ENTPD2 protein, anti-hIgG-HRP, OD450
T4 construct: also called CD39L1; ENTPDase 2
T4 sequence: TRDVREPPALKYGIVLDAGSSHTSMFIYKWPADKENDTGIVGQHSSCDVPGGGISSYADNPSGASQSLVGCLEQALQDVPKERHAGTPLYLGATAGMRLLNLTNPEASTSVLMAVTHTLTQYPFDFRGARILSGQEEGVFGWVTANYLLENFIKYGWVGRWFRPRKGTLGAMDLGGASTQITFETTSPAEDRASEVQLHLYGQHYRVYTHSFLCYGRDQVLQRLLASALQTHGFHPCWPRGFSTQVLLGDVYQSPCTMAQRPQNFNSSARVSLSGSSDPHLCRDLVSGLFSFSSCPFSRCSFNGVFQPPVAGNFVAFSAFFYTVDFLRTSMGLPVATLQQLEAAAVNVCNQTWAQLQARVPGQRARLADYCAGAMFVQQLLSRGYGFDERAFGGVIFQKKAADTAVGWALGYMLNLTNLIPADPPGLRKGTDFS
Protocol: as §1

[3] = molecular target: T2, human CD39 (full length, on cells); assay: cell-based or functional assay

B1: hu23.H5L5 (antibody, V domains shown)
VH: QVQLVQSGAEVKKPGASVKVSCKASGYNLKDTFLHWVRQAPGQGLEWMGRIDPANGNIKYDPKFQGRVTITADTSANTAYMELISLRSEDTAVYYCANSPYYYGSGYRIFDVWGQGTTVTVSS
VL: QIVLTQSPATLSLSPGERATLSCSAFSSVNYMHWYQQKPGQAPRLLIYTTSNLASGIPTRFSGSGSGTSYTLTISSLEPEDFAVYYCQQRSTYPFTFGQGTKLEIK
notes: humanized c23
**Q.** Does B1 bind (ENTPD5 protein)?
**A.** no binding (tested: about 66 nM)

**Q.** And the EC50 [1]?
**A.** 0.177 nM

**Q.** What about the “EC50 (read off the curve)” value [2] of the same binder?
**A.** ~4 nM

**Q.** Does B1 bind (ENTPD2 protein)?
**A.** no binding (tested: about 66 nM)

**Q.** And the “ATPase inhibition IC50 on SK-MEL-28 cells” value [3]?
**A.** 0.122 nM

Source: US20210388105A1 (ELPISCIENCE SUZHOU BIOPHARMA, published 2021)
